Target: T1, CD24 (human, UniProt P25063 27-59)
T1 construct: whole, on cells; For MCF-7 and REH cells it says only CD24+; also called human CD24; hCD24
T1 chain (looked up): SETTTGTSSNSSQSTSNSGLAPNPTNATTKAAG
Assay: flow cytometry on CD24+ MCF-7 cells, FITC anti-human IgG-Fc secondary
Method: CD24⁺ MCF-7 cells in 100 μl culture medium at a cell density of 1×10⁶/ml were incubated with 100 μl serially diluted IMM47H and hIgG-Fc (3-fold dilution, starting at 30 μg/ml), respectively, at 4° C. for 1 h. Cells were washed with cold PBS twice, and then incubated with 100 μl FITC-conjugated secondary antibody against human IgG-Fc (Cat #F9512, Sigma) for 45 min. Cells were washed twice and re-suspended in 200 μl PBS. Then, the cells were subject to FACS analysis using a flow cytometer (Merck Millipore, Guava® easyCyte 5HT).

binding result: binds
B1: IMM47H (antibody, human IgG1, kappa, V domains shown)
VH: DVQLQESGPGLVKPSETLSLTCTVSGYSITSGYSWHWIRQPPGKGLEWIGYIHYSGSTKYNPSLKSRVTISVDTSKNQFSLKLSSVTAADTAVYYCARGADYALDYWGQRTSVTVSS
VL: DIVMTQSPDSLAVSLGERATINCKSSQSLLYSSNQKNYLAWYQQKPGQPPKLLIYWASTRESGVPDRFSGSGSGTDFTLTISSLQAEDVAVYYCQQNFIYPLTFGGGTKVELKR
notes: also called humanized anti-CD24 antibody
